Data published in PMC3927398.

Key:
[1] = molecular target: MYO19-1IQ (N-terminal FLAG-tagged human MYO19, motor domain and one IQ motif, amino acids 2-787) (human) (UniProt Q96H55); test: co-purification
[2] = molecular target: actin filaments (F-actin) from rabbit skeletal muscle, phalloidin-stabilized (rabbit) (UniProt P68135); test: co-sedimentation

Row | stoichiometry N (CaM/MYO19-1IQ) [1] | Kd [2] | fraction bound at 5 μM actin without ATP [2] | Substance
1 | 1.1 |  |  | calmodulin (from UniProt P0DP23 1-149) (natural protein)
2 |  | 1200 nM | 0.8 | MYO19-1IQ with bound calmodulin light chain (from UniProt Q96H55-1 2-787; P0DP23 1-149) (complex)
